PMC9428257 (2022)

How the values were obtained:
Assay in all cases: FACS
[1] = target: yeast-displayed mutant sBCMA V2 (V3 without N53D) (human, UniProt Q02223 1-54, S16G | H19Y | T36A)
[2] = target: Clone V5
[3] = target: Clone V8

- Kd [1]: 0.018 nM
- Kd [2]: 0.007 nM
- Kd [3]: 0.054 nM
B1: human APRIL (a proliferation-inducing ligand) (ligand)
chain: AVLTQKQKKQHSVLHLVPINATSKDDSDVTEVMWQPALRRGRGLQAQGYGVRIQDAGVYLLYSQVLFQDVTFTMGQVVSREGQGRQETLFRCIRSMPSHPDRAYNSCYSAGVFHLHQGDILSVIIPRARAKLNLSPHGTFLGFVKL
